32 sequences from the supplement of paper PMC12764529 can be followed below.

± gives the half width of the 95% confidence interval.

Data set [1] can be described thus: folding stability dG unfold (combined trypsin and chymotrypsin); higher = more stable. A digest of the protocol: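 Sequencing followed digestion of designed mini-proteins with trypsin and chymotrypsin, each at 11 concentrations in threefold dilutions together with a no-protease condition. The mini-proteins were under 80 residues, had no cysteine, sat in a PA-tagged cDNA display construct, and were kept only if AlphaFold2 dimer inter-PAE was above 15. From the counts, Bayesian fitting gave K50, and unfolding free energy was derived against a sequence-predicted unfolded-state K50 and a shared folded-state K50, per protease or combined.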

A short description of data set [2]: folding stability dG unfold from trypsin proteolysis; higher = more stable. Here is the method:
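Folding stability of de novo designed mini-proteins (<80 aa, no Cys; designed by TrROS, TrMRF, ProteinMPNN and the joint model) was measured by cDNA display proteolysis with trypsin and chymotrypsin. Each protease was used at 11 concentrations in a threefold dilution series plus a no-protease condition. K50 was inferred by Bayesian fitting of sequencing counts, and dG unfold was derived against a sequence-predicted unfolded-state K50 (Tsuboyama et al. method). Sequences shown include variable-length N-terminal GS-type padding (SAGGSAGG...) inside a display construct carrying a PA tag. Rows were kept only if the AF2 dimer inter-PAE was >15, to exclude likely homo-oligomers.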

As to “SAGGSAMKVKSIHWQRHGDRPMVRIKIQNPDGKKRERNIPMDDPEKFKKEAKELAKEGKIKEIEPYSAGGSA [r15_575_TrROS]”, the “folding stability dG unfold” value in data set [1] was less than -1 kcal/mol; in data set [2] it was -0.42 ± 0.81 kcal/mol.

Regarding “SAGGSAMPKPKVEILKVEKTEDGTVKVPVKVEVTFEDGSKETVPATVTFEVEEGKPLGPEALKEAISAGGSA [r15_836_TrMRF]”, the entries for the “folding stability dG unfold” value in data set [1] and in data set [2] were less than -1 kcal/mol and -0.377 ± 0.11 kcal/mol, respectively.

For “SAGGSAMTLEELKGMPIRSWWPGGQKIEMPIKKIDLNDPMFEIKFGGEPIKIPFNHPMRIEIQPPKSAGGSA [r15_355_TrROS]”, the “folding stability dG unfold” value is -0.64 ± 0.27 kcal/mol in data set [1] and 0.0637 ± 0.052 kcal/mol in data set [2].

As to “SAGGSANMREVEIPMTPNDLEEALEEVEDAPPGRNVSVNMTNPEEGKPYPIKIRVNENGKLTEIEFSAGGSA [r15_228_TrROS]”, the “folding stability dG unfold” value in data set [1] was -0.179 ± 0.27 kcal/mol; in data set [2], 0.501 ± 0.077 kcal/mol.

Take “SAGGSAPPASAPGVVEEVEAEVPVDVPEVARLTGRPPRPGERYRVRVVRRVYPDGRVETDVYIEPGSAGGSA [r15_91_TrMRF]”: the “folding stability dG unfold” value in data set [1] is -0.252 ± 0.14 kcal/mol; in data set [2] it was 0.328 ± 0.064 kcal/mol.

For the sequence “SAGGSASPEELAERVAKEIEEKYPVEVTEIRVEEVSEDEVVLSMTYRKPLPGGETEVENRTVTLPQSAGGSA [r15_276_JUSTAS]”, the “folding stability dG unfold” value in data set [1] is -0.404 ± 0.46 kcal/mol; in data set [2], 0.162 ± 0.26 kcal/mol.

Consider “SAGGSAVPKSDPVIRIKVKYPSNPQVITVPRSEIVEMEVGPPENIMTIKNPKTGKEYPATLLEILASAGGSA [r15_495_JUSTAS]”, for which the figures for the “folding stability dG unfold” value in data set [1] and in data set [2] were less than -1 kcal/mol and -0.531 ± 0.23 kcal/mol, respectively.

As to “SAGGSITLEIELPNGAKITVTIEYDEETGTVTIEAEITLPNGTVIRIKATINKDGTITIEKIEVFKPSAGGS [r16_213_TrROS_Hall]”, the “folding stability dG unfold” value in data set [1] was more than 6 kcal/mol; in data set [2] it was 4.82 ± 0.69 kcal/mol.

On to “SAGGSLVTELIENNPEFQALLESGTTLKVTFPGGLSGEIEVKNKSPEEIEKAILARNPGPVEIEITGSAGGS [r16_655_JUSTAS]”, for which the results for the “folding stability dG unfold” value in data set [1] and in data set [2] were -0.192 ± 0.2 kcal/mol and 0.384 ± 0.11 kcal/mol, respectively.

Turning to “SAGGSMEIPLGETIPIFFDDVIIEIEPETHEIHVIAEDSEKALELIKNLPFPIPAGEVKELSPEEFSAGGSA [r2_418_TrMRF]”, the “folding stability dG unfold” value in data set [1] was -0.364 ± 0.21 kcal/mol; in data set [2], 0.352 ± 0.042 kcal/mol.

For the sequence “SAGGSNNDNQPEPKVPYMEITINIPVNYNPNQSEEDRKRQVQEFIEELKDMYIPFPNGYPIRIDVMSAGGSA [r2_149_TrROS]”, the “folding stability dG unfold” value in data set [1] was -0.554 ± 0.49 kcal/mol; in data set [2], 0.149 ± 0.13 kcal/mol.

For “SAGGSNPGDPEQVPKVKIKITYPDNGKEFTIPVEELRNGPIEEAVSEIANEARERYPGHPLRIEPVSAGGSA [r2_392_TrROS]”, the results for the “folding stability dG unfold” value in data set [1] and in data set [2] were less than -1 kcal/mol and -0.836 ± 0.41 kcal/mol, respectively.

Consider “SAGGSPYRIKFEFPNGPKFEFPVKITEIQPPNGNLYANITAQDDGKPHELMFPAPNIRPVEIEPPPSAGGSA [r2_319_TrROS]”, for which the figures for the “folding stability dG unfold” value in data set [1] and in data set [2] were -0.414 ± 0.66 kcal/mol and -0.796 ± 0.69 kcal/mol, respectively.

In the case of “SAGGSSLDEKIKQAVEEGKVPTEIEFTDPSNDLKTRYLVTVKSVLPGSYEVEVEEEIFDPDNPVLVSAGGSA [r2_420_JUSTAS]”, the “folding stability dG unfold” value in data set [1] is less than -1 kcal/mol; in data set [2], -1.07 ± 0.27 kcal/mol.

Turning to “SAGGSTLDELIDAIKKAAKKGKEPVEIEFPNPNGGMIKINPDGSIETFPPNGEPQRFKIPLDDLKISAGGSA [r2_97_TrROS]”, the “folding stability dG unfold” value was -0.781 ± 0.25 kcal/mol in data set [1] and -0.568 ± 0.11 kcal/mol in data set [2].

Turning to “SAGGSYRIEIEDIDPKPQWRPNPNGEWEPRPTLTIEVKIERNPDEMPEKEKQKIEEQAERIAKKFFSAGGSA [r2_40_TrROS]”, the “folding stability dG unfold” value in data set [1] is less than -1 kcal/mol; in data set [2], -0.436 ± 0.4 kcal/mol.

With “SAGGTTTESVSEDSTDNGEYVTTTTTTDPVGPSTVVTTTTTTTPADGTTTTTTTTYTVPPGAPASAVVSAGG [r13_3_JUSTAS]”, the “folding stability dG unfold” value in data set [1] was -0.00338 ± 0.16 kcal/mol; in data set [2] it was 0.354 ± 0.052 kcal/mol.

As for “SAGGTVKVTVEVRDEETGETVTVEVEVEPAPAPPVVVLPAEDLEKLRELGFPENAVLDEETNELVIFSAGGS [r16_194_TrROS_Hall]”, the “folding stability dG unfold” value in data set [1] is -0.204 ± 0.24 kcal/mol; in data set [2], 0.537 ± 0.085 kcal/mol.

On to “SAGMDPNEKREVVVELEFEVPDPSNPEGGSVPIRVTLKATGKGTEEEAEELKKKAEEEAREKVEKGELLSAG [r5_532_JUSTAS]”, for which the “folding stability dG unfold” value is -0.287 ± 0.56 kcal/mol in data set [1] and 0.687 ± 0.15 kcal/mol in data set [2].

For “SAGMEVTVTDPIPLDPTPDGVPDVKPELVEERAKAAGFTDEIESVDTTPKPDSVTTTVTHPTATLTAGSAGG [r19_398_JUSTAS]”, the figures for the “folding stability dG unfold” value in data set [1] and in data set [2] were less than -1 kcal/mol and -0.201 ± 0.082 kcal/mol, respectively.

Regarding “SAGMKKEKPKETVTITLKNGKKIEIVKTDDSIKIFITDKNGKKRELTVKGLSLEEILKKLEELGFEVEPSAG [r5_613_TrROS_Hall]”, the results for the “folding stability dG unfold” value in data set [1] and in data set [2] were 0.353 ± 0.2 kcal/mol and 0.776 ± 0.082 kcal/mol, respectively.

For the sequence “SAGMKVEVVERKGPDGRLVRVVKETTITPVPGPAVAEANGAPLTPEDEKVVTVTTTVLDPEGKVLETVDSAG [r5_128_JUSTAS]”, the “folding stability dG unfold” value in data set [1] is less than -1 kcal/mol; in data set [2], -0.903 ± 0.43 kcal/mol.

Consider “SAGMSTSGPIFVPEGPPAIYISYPKPNVKFVVPVSEGIEAVKKRAEEPGLNPVIIKVVETPPGVPVTLSAGG [r19_386_JUSTAS]”, for which the figures for the “folding stability dG unfold” value in data set [1] and in data set [2] were less than -1 kcal/mol and -0.988 ± 0.34 kcal/mol, respectively.

Regarding “SAGMVVKVTVITEDEKPIEVYLPVKDPEKYPPEKVEEAAKEIAKKLEEEGIPVKKVSVEPIAPKPGLLSAGG [r19_334_TrMRF]”, the “folding stability dG unfold” value in data set [1] stood at 0.0993 ± 0.4 kcal/mol; in data set [2], 0.544 ± 0.087 kcal/mol.

Take “SAGMYIEGSLSSPEEAPVVAVPFPGPEKLLLAPLAVGLEEIREALEEEGFEPVEIRVAETEPGVPLDLSAGG [r19_386_TrMRF]”: the “folding stability dG unfold” value in data set [1] is -0.694 ± 0.24 kcal/mol; in data set [2], 0.211 ± 0.024 kcal/mol.

Turning to “SAGPGNWFIMIFINIEIKLETVPDPDGKPWLKITISIKFFVMIVRLPPDGKARMEMFPITIKFTFTIPLSAG [r5_428_TrROS]”, the “folding stability dG unfold” value in data set [1] was more than 6 kcal/mol; in data set [2], 4.17 ± 0.29 kcal/mol.

Consider “SAGWKLKIESPNGAEIEINPESGMIDVKNPDNGQPWSVMIPPENPGEINIFNPGDGEPLQPFKIDEIEPSAG [r5_761_TrROS]”, for which the figures for the “folding stability dG unfold” value in data set [1] and in data set [2] were 0.111 ± 0.41 kcal/mol and 0.337 ± 0.23 kcal/mol, respectively.

Consider “SAIRGLPPEEIEKAVKKLAKEGNVEIEIKPFTMRVYPPDGGQQPYQYYQIEIYNPDNGKPIEDKIKKLFSAG [r14_628_TrROS]”, for which the “folding stability dG unfold” value was less than -1 kcal/mol in data set [1] and 0.167 ± 0.25 kcal/mol in data set [2].

As for “SAITIMIPPNQTLEEIADELGFPGIKDVKHEPFEPGYYPATFEFPGDPDREIEIMFNPEPDWMMVEVEDSAG [r14_713_TrROS]”, the “folding stability dG unfold” value is 0.0271 ± 0.13 kcal/mol in data set [1] and 0.809 ± 0.054 kcal/mol in data set [2].

Turning to “SAMEVTVTPLPDGTTRVTLPDGVEITHPAPGTGEPVLVEVTEVPGTGTYRITIRSPAGGEELRELLVPVSAG [r14_975_JUSTAS]”, the “folding stability dG unfold” value in data set [1] is 0.443 ± 0.091 kcal/mol; in data set [2], 0.986 ± 0.03 kcal/mol.

For “SAMLTTLETTTTTSDSLTVTTSLSLLPDGSLVTTTTVIDTSGNVLSSTTTVEPGPPPVTPENIALMVRLSAG [r14_171_JUSTAS]”, the results for the “folding stability dG unfold” value in data set [1] and in data set [2] were 0.125 ± 0.29 kcal/mol and 0.298 ± 0.12 kcal/mol, respectively.

Turning to “SLEIAKELGFPIKRFEPTEMDPDNGRQKWEAYIPMPNRTVRVDIDIRYEPDPNGKRQPKIQIDSIEFMPPSA [r9_613_TrROS]”, the results for the “folding stability dG unfold” value in data set [1] and in data set [2] were -0.242 ± 0.23 kcal/mol and 0.392 ± 0.12 kcal/mol, respectively.
